Reference: PMC10786891, “Massively parallel profiling of RNA-targeting CRISPR-Cas13d”

T1: EsCas13d, nuclease-dead (Eubacterium siraeum, UniProt B0MS50, R295A;H300A;R849A;H854A)
T1 sequence: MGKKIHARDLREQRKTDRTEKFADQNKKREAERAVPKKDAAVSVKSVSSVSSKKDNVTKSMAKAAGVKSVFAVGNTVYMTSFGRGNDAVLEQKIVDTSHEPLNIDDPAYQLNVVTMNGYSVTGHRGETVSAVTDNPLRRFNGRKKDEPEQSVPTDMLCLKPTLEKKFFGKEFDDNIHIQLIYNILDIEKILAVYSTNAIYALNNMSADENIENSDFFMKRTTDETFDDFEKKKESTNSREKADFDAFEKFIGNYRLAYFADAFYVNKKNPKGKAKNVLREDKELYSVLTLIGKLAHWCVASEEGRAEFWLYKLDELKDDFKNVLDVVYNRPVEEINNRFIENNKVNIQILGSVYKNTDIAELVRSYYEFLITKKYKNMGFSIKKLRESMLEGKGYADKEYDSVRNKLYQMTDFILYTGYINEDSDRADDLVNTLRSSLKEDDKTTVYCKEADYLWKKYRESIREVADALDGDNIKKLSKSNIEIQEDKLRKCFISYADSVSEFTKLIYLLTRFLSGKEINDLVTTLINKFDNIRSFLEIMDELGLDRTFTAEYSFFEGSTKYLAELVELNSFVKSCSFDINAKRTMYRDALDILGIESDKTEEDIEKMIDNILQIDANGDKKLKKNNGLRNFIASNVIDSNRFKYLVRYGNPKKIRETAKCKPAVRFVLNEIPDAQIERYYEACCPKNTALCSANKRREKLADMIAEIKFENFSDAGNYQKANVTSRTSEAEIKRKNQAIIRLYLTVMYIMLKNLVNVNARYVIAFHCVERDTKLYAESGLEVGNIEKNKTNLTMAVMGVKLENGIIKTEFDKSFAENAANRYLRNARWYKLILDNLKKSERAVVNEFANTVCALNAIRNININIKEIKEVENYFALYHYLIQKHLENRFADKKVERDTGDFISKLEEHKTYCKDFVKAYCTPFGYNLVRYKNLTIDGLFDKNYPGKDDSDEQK

B1: target 1 C2A,U8A (mixed)
RNA 1: CACCCGUGCAAAAAUGCAGGGGUCUAAAACUGAGCGGAUAACCUCUCUAUGG
RNA 2: GGGAAUGGAUCCACAUCUACGAAUUCGUACCAUAGAGAGGUUAACCGCUAACCGAGAUCGGAAGAGCACACGU
B2: target 1 insG 3' of 4,insA 3' of 3 (mixed)
RNA 1: CACCCGUGCAAAAAUGCAGGGGUCUAAAACUGAGCGGAUAACCUCUCUAUGG
RNA 2: GGGAAUGGAUCCACAUCUACGAAUUCGUACCAUAGAGAGGUUAUCCGCGUACACCGAGAUCGGAAGAGCACACGU
B3: target 1 C2G,A9C (mixed)
RNA 1: CACCCGUGCAAAAAUGCAGGGGUCUAAAACUGAGCGGAUAACCUCUCUAUGG
RNA 2: GGGAAUGGAUCCACAUCUACGAAUUCGUACCAUAGAGAGGUUCUCCGCUGACCGAGAUCGGAAGAGCACACGU
B4: target 2 MT 5'PFS UAA 3'PFS CAU (mixed)
RNA 1: CACCCGUGCAAAAUUGCAGGGGUCUAAAACCUUCUCCAAAUUGUUUCAUCCU
RNA 2: GGGAAUGGAUCCACAUCUACGAAUUCUAAAGGAUGAAACAAUUUGGAGAAGCAUAGAUCGGAAGAGCACACGU
B5: target 2 MT 5'PFS UCG 3'PFS AAU (mixed)
RNA 1: CACCCGUGCAAAAUUGCAGGGGUCUAAAACCUUCUCCAAAUUGUUUCAUCCU
RNA 2: GGGAAUGGAUCCACAUCUACGAAUUCUCGAGGAUGAAACAAUUUGGAGAAGAAUAGAUCGGAAGAGCACACGU
B6: target 2 MT 5'PFS UCG 3'PFS AAG (mixed)
RNA 1: CACCCGUGCAAAAUUGCAGGGGUCUAAAACCUUCUCCAAAUUGUUUCAUCCU
RNA 2: GGGAAUGGAUCCACAUCUACGAAUUCUCGAGGAUGAAACAAUUUGGAGAAGAAGAGAUCGGAAGAGCACACGU
B7: target 2 MT 5'PFS CAG 3'PFS AUA (mixed)
RNA 1: CACCCGUGCAAAAUUGCAGGGGUCUAAAACCUUCUCCAAAUUGUUUCAUCCU
RNA 2: GGGAAUGGAUCCACAUCUACGAAUUCCAGAGGAUGAAACAAUUUGGAGAAGAUAAGAUCGGAAGAGCACACGU
B8: target 2 MT 5'PFS GAG 3'PFS UCC (mixed)
RNA 1: CACCCGUGCAAAAUUGCAGGGGUCUAAAACCUUCUCCAAAUUGUUUCAUCCU
RNA 2: GGGAAUGGAUCCACAUCUACGAAUUCGAGAGGAUGAAACAAUUUGGAGAAGUCCAGAUCGGAAGAGCACACGU
B9: target 2 MT 5'PFS UCG 3'PFS AAA (mixed)
RNA 1: CACCCGUGCAAAAUUGCAGGGGUCUAAAACCUUCUCCAAAUUGUUUCAUCCU
RNA 2: GGGAAUGGAUCCACAUCUACGAAUUCUCGAGGAUGAAACAAUUUGGAGAAGAAAAGAUCGGAAGAGCACACGU
B10: target 2 MT 5'PFS GUA 3'PFS AUG (mixed)
RNA 1: CACCCGUGCAAAAUUGCAGGGGUCUAAAACCUUCUCCAAAUUGUUUCAUCCU
RNA 2: GGGAAUGGAUCCACAUCUACGAAUUCGUAAGGAUGAAACAAUUUGGAGAAGAUGAGAUCGGAAGAGCACACGU
B11: target 2 MT 5'PFS GAG 3'PFS UCA (mixed)
RNA 1: CACCCGUGCAAAAUUGCAGGGGUCUAAAACCUUCUCCAAAUUGUUUCAUCCU
RNA 2: GGGAAUGGAUCCACAUCUACGAAUUCGAGAGGAUGAAACAAUUUGGAGAAGUCAAGAUCGGAAGAGCACACGU
B12: target 2 MT 5'PFS UAA 3'PFS CAA (mixed)
RNA 1: CACCCGUGCAAAAUUGCAGGGGUCUAAAACCUUCUCCAAAUUGUUUCAUCCU
RNA 2: GGGAAUGGAUCCACAUCUACGAAUUCUAAAGGAUGAAACAAUUUGGAGAAGCAAAGAUCGGAAGAGCACACGU
B13: target 2 MT 5'PFS UAA 3'PFS CAC (mixed)
RNA 1: CACCCGUGCAAAAUUGCAGGGGUCUAAAACCUUCUCCAAAUUGUUUCAUCCU
RNA 2: GGGAAUGGAUCCACAUCUACGAAUUCUAAAGGAUGAAACAAUUUGGAGAAGCACAGAUCGGAAGAGCACACGU
B14: target 2 MT 5'PFS GAG 3'PFS UCG (mixed)
RNA 1: CACCCGUGCAAAAUUGCAGGGGUCUAAAACCUUCUCCAAAUUGUUUCAUCCU
RNA 2: GGGAAUGGAUCCACAUCUACGAAUUCGAGAGGAUGAAACAAUUUGGAGAAGUCGAGAUCGGAAGAGCACACGU
B15: target 2 MT 5'PFS GCG 3'PFS AAG (mixed)
RNA 1: CACCCGUGCAAAAUUGCAGGGGUCUAAAACCUUCUCCAAAUUGUUUCAUCCU
RNA 2: GGGAAUGGAUCCACAUCUACGAAUUCGCGAGGAUGAAACAAUUUGGAGAAGAAGAGAUCGGAAGAGCACACGU
B16: target 2 MT 5'PFS UGC 3'PFS GGC (mixed)
RNA 1: CACCCGUGCAAAAUUGCAGGGGUCUAAAACCUUCUCCAAAUUGUUUCAUCCU
RNA 2: GGGAAUGGAUCCACAUCUACGAAUUCUGCAGGAUGAAACAAUUUGGAGAAGGGCAGAUCGGAAGAGCACACGU
B17: target 2 MT 5'PFS CAG 3'PFS AUC (mixed)
RNA 1: CACCCGUGCAAAAUUGCAGGGGUCUAAAACCUUCUCCAAAUUGUUUCAUCCU
RNA 2: GGGAAUGGAUCCACAUCUACGAAUUCCAGAGGAUGAAACAAUUUGGAGAAGAUCAGAUCGGAAGAGCACACGU
B18: target 2 MT 5'PFS GUA 3'PFS AUC (mixed)
RNA 1: CACCCGUGCAAAAUUGCAGGGGUCUAAAACCUUCUCCAAAUUGUUUCAUCCU
RNA 2: GGGAAUGGAUCCACAUCUACGAAUUCGUAAGGAUGAAACAAUUUGGAGAAGAUCAGAUCGGAAGAGCACACGU
B19: target 2 MT 5'PFS UUU 3'PFS AUG (mixed)
RNA 1: CACCCGUGCAAAAUUGCAGGGGUCUAAAACCUUCUCCAAAUUGUUUCAUCCU
RNA 2: GGGAAUGGAUCCACAUCUACGAAUUCUUUAGGAUGAAACAAUUUGGAGAAGAUGAGAUCGGAAGAGCACACGU
B20: target 2 MT 5'PFS GCG 3'PFS UCU (mixed)
RNA 1: CACCCGUGCAAAAUUGCAGGGGUCUAAAACCUUCUCCAAAUUGUUUCAUCCU
RNA 2: GGGAAUGGAUCCACAUCUACGAAUUCGCGAGGAUGAAACAAUUUGGAGAAGUCUAGAUCGGAAGAGCACACGU
B21: target 2 MT 5'PFS AUG 3'PFS ACA (mixed)
RNA 1: CACCCGUGCAAAAUUGCAGGGGUCUAAAACCUUCUCCAAAUUGUUUCAUCCU
RNA 2: GGGAAUGGAUCCACAUCUACGAAUUCAUGAGGAUGAAACAAUUUGGAGAAGACAAGAUCGGAAGAGCACACGU
B22: target 2 MT 5'PFS UUU 3'PFS AUA (mixed)
RNA 1: CACCCGUGCAAAAUUGCAGGGGUCUAAAACCUUCUCCAAAUUGUUUCAUCCU
RNA 2: GGGAAUGGAUCCACAUCUACGAAUUCUUUAGGAUGAAACAAUUUGGAGAAGAUAAGAUCGGAAGAGCACACGU
B23: target 2 MT 5'PFS AUG 3'PFS ACC (mixed)
RNA 1: CACCCGUGCAAAAUUGCAGGGGUCUAAAACCUUCUCCAAAUUGUUUCAUCCU
RNA 2: GGGAAUGGAUCCACAUCUACGAAUUCAUGAGGAUGAAACAAUUUGGAGAAGACCAGAUCGGAAGAGCACACGU
B24: target 2 MT 5'PFS UUU 3'PFS AUU (mixed)
RNA 1: CACCCGUGCAAAAUUGCAGGGGUCUAAAACCUUCUCCAAAUUGUUUCAUCCU
RNA 2: GGGAAUGGAUCCACAUCUACGAAUUCUUUAGGAUGAAACAAUUUGGAGAAGAUUAGAUCGGAAGAGCACACGU
B25: target 2 MT 5'PFS AUG 3'PFS ACU (mixed)
RNA 1: CACCCGUGCAAAAUUGCAGGGGUCUAAAACCUUCUCCAAAUUGUUUCAUCCU
RNA 2: GGGAAUGGAUCCACAUCUACGAAUUCAUGAGGAUGAAACAAUUUGGAGAAGACUAGAUCGGAAGAGCACACGU
B26: target 2 MT 5'PFS GUC 3'PFS AAU (mixed)
RNA 1: CACCCGUGCAAAAUUGCAGGGGUCUAAAACCUUCUCCAAAUUGUUUCAUCCU
RNA 2: GGGAAUGGAUCCACAUCUACGAAUUCGUCAGGAUGAAACAAUUUGGAGAAGAAUAGAUCGGAAGAGCACACGU
B27: target 2 MT 5'PFS GAG 3'PFS UCU (mixed)
RNA 1: CACCCGUGCAAAAUUGCAGGGGUCUAAAACCUUCUCCAAAUUGUUUCAUCCU
RNA 2: GGGAAUGGAUCCACAUCUACGAAUUCGAGAGGAUGAAACAAUUUGGAGAAGUCUAGAUCGGAAGAGCACACGU
B28: target 2 MT 5'PFS UUU 3'PFS AUC (mixed)
RNA 1: CACCCGUGCAAAAUUGCAGGGGUCUAAAACCUUCUCCAAAUUGUUUCAUCCU
RNA 2: GGGAAUGGAUCCACAUCUACGAAUUCUUUAGGAUGAAACAAUUUGGAGAAGAUCAGAUCGGAAGAGCACACGU

target: T1, EsCas13d, nuclease-dead; test: crRNA (strand 1, pre-loaded); Mg2+; 40 mM Tris-HCl pH 7.5, 150 mM NaCl, 6 mM MgCl2, 1 mM DTT, 0.1% Tween-20, 0.2 mg/ml BSA; 25 C; 10 min per concentration, then washed; conditions: tags: His6-TwinStrep-SUMO cleaved; N-terminal SNAP kept (SNAP-Surface 488); label: 3' end held by stalled T7 RNA polymerase

Q: B1 was tested. Which Kd did it give?
A: 19.7 ± 0.8 nM

Q: B2 was tested. Which Kd did it give?
A: 6.5 ± 0.5 nM

Q: Which Kd does the source give for B3 here?
A: 15 ± 1.2 nM

Q: How did the Kd turn out when B4 was run?
A: 4.9 ± 0.8 nM

Q: Which Kd does the source give for B5 here?
A: ~24 nM

Q: Which Kd does the source give for B6 here?
A: 32 ± 11 nM

Q: How did the Kd turn out when B7 was run?
A: 4.5 ± 1 nM

Q: For B8, which Kd is on record?
A: 29 ± 5 nM

Q: For B9, which Kd is on record?
A: 16 ± 5 nM

Q: For B10, which Kd is on record?
A: 7.8 ± 0.5 nM

Q: How did the Kd turn out when B11 was run?
A: 8 ± 0.8 nM

Q: For B12, which Kd is on record?
A: 2.4 ± 0.4 nM

Q: Which Kd does the source give for B13 here?
A: 5.6 ± 1.8 nM

Q: With B14 as the binder, how does the Kd read?
A: 10.7 ± 0.9 nM

Q: For B15, which Kd is on record?
A: 10.2 ± 1.5 nM

Q: How did the Kd turn out when B16 was run?
A: 43 ± 10 nM

Q: For B17, which Kd is on record?
A: 7 ± 1.7 nM

Q: How did the Kd turn out when B18 was run?
A: 8.9 ± 0.8 nM

Q: For B19, which Kd is on record?
A: 7.5 ± 0.9 nM

Q: With B20 as the binder, how does the Kd read?
A: 31 ± 5 nM

Q: How did the Kd turn out when B21 was run?
A: 13 ± 3.2 nM

Q: With B22 as the binder, how does the Kd read?
A: 6.5 ± 0.5 nM

Q: Which Kd does the source give for B23 here?
A: 18.8 ± 3.1 nM

Q: Which Kd does the source give for B24 here?
A: 9.1 ± 1 nM

Q: For B25, which Kd is on record?
A: 11.6 ± 1.9 nM

Q: For B26, which Kd is on record?
A: 12.8 ± 2.8 nM

Q: For B27, which Kd is on record?
A: 16 ± 2.2 nM

Q: For B28, which Kd is on record?
A: 6.9 ± 0.8 nM
